Results on 18 sequences are retold here after a protein production outcome set (Wang et al. 2014).

This data set is described as follows: label from the status in PepcDB records.
Regarding “MTIIKYIKFVVIIVIVTIVFSCSKNEAGNSEYDPSLPISLTDFFPIQGGMATRMVIEGANFGTDLSQIKVFFNQKEASILNVKNSIIYLLVPKLPGNDCIVTVKVGNQEARFTRNFQYIENYSVTTIAGQPGTNLFVEGTLAAAQFGPVQHLAIDDENNLFITERNGSDGKGTCSVLNEESGTVTFLFKASDNLNVPTVNAQTQNVYIPLDGGYTFYELNPVNQWIAKSRLVLHPSKEQQEAGMDDFEINWKHSLAFSRYDNMIYTRSYGGDLIKVDPETRVGQKIGNFFPNTDSFIVAHPTQPEILYIAYAAKHVIYTYNIETGEHKLFAGAFGQSGWNDGIATDAEFNSPRQMSLDMEGNIYIADSGNHCIRMIDKNGIVTTPIGQPGEAGYADGSPDMALLNDPRGVAVNSEGDVYIADLGNRCIRKLTLQLEHHHHHH”, the protein production result is “failed”.
The same measure for “MTIISTIFFFSFSVFFVIRYLKLKKIYDLLMIFVGLYAGLINMKLMSLSTTVSYVLDTIVIVLVIISVILFLKDKKNY”: “failed”; for “MTIMAGCMLVLPVMDAIAKYMAVSVGMSPAQVTFYRFFFQVLCTLPLLLVVSPGALFSAKRPWMNCLRGVLHASASLMFFAAVKYMPLADVFAIYFVEPFMLTMMSALFLGDRVGWKRWTAIVVGFGGALIVIQPSFEIFGWTSLLPVACAFFYTLYLFLNRAIGDADSPLVMQTMSGIAGTLFMAAALFAGDALGDKDFAVSLPQSAFALVLLVLLGSLSGYMHLLIVRAFRLAPLSLLAPFQYFEIISATILGYALFSDFPTPSKWLGILIIVASGLFIIWRERQQPASTPPLEGQ”: “failed”; for “MTISSRKAALAAVLLASVAVPAAAEPVFNRIASFPVAENLPGDKDKLSQTSAEIITATDDGNTLIYSDSPLGAIGFIDITDAKAPKSGGALMMDGEPTSVTSSAGKALVAVNTSESKARPSGRLAIVDVATKKIENTCDLGGQPDSIALNKDKTLGTIAIEDERDEDVNDGNIPQMPAGDLVVFRVKNGAVDCGSIKHVTLTDLAGVVPEDPEPEFVAFNGLNEIALTLQENNEIVIIDANTAEVKTHFSAGSVDLTGIDTKRDGALKFTGESKGVLREPDAVKWLDDNRLVVANEGDYHGGSRGFTIFDKTGKLLYESGASFERAVAHIGHYPESRSESKGVEPEGLEAAKFGDDQYFFLLAERASVVGVYKDTGADPELVQLLPSGISPEGGVAIPARNLFATANELDLGKDGGVRSHVMIYERSEGEKAYPQIVSAEKDGNPIGFAALSGLAAVPGKPGMLYAVSDSVLGSQPTIYTIDATKKPAVITDRLVVKRDGAPAQKLDIEGIAAAADGSFWLASEGYSERLVPHALYNVNAKGDIRAEIALPKELTANEIRFGFEGVTIIGTGDDATLWMAVQREWGDDEKGFVKLVSYNPKKKEWGAVRYPLDKTESGWVGLSEISAHGDSVYIIERDNLVGDAAKLKKLYKVAISELKPAKLGGELPVVKKTEAHDFLGELKTATNGYVLDKLEGFTFDASGKPYAVTDNDGVSDSSGETLFFPVELSATN”: “failed”.
The same measure for “MTITSNISVQNDNLVVQGKTILTKIPDNIILTPVTGNGFVSGSFIGATFEQSKSLHVFPIGVLEGLRFMCCFRFKLWWMTQRMGSCGKDIPLETQFMLLESKDEVEGNGDDAPTVYTVFLPLLEGQFRAVLQGNEKNEIEICFESGDKAVETSQGTHLVYVHAGTNPFEVIRQSVKAVERHMQTFHHREKKKLPSFLDWFGWCTWDAFYTDVTAEGVDEGLKSLSEGGTPPKFLIIDDGWQQIENKEKDENCVVQEGAQFATRLVGIKENAKFQKSDQKDTQVSGLKSVVDNAKQRHNVKQVYAWHALAGYWGGVKPAASGMEHYDSALAYPVQSPGVLGNQPDIVMDSLAVHGLGLVNPKKVFNFYNELHSYLASCGIDGVKVDVQNIIETLGAGLGGRVSLTRSYQQALEASIARNFTDNGCISCMCHNTDGLYSAKQTAIVRASDDFYPRDPASHTIHIASVAYNSLFLGEFMQPDWDMFHSLHPTAEYHAAARAVGGCAIYVSDKPGNHNFDLLRKLVLPDGSVLRAKLPGRPTRDCLFADPARDGIRCWLVQGNEEEPDP”: “failed”; for “MTIVGLKKTYLGLIDKKTGKIIAGPEGLTTDGLYMSNPKDLGTASANITNIAAAGTQKFGDNGLVDVVSSKSFPQVAAVWNNLPFDIKAKIKGEVSDKKGGYVQSQDLPQVALIIESELIDRSHSIFYAFGNGHMTETALNIQTDNAAQNRVEDALTYQSLAFEAWNNQGMKTFNSADSGFDKTAMLKEVMGGYAASGLGVLEHHHHHH”: “failed”.
The same measure for “MTIYHFVGIKGSGMSALAQILHDKGFQVQGSDVDKYFFTQKALEEKQIPIMTFSADNIQEGLTIIAGNAFPDTHEEIERALELGLSVIRYHKFLGQLIDGYTSIAITGSHGKTSTTGLLSHVVGAIRPTSYLIGDGTGSGTKDAEYFALEACEYQRHFLAYKPTYAIMTNIDWDHPDYFKSVDDVFNAFETLGKQVKKAVFALGDDAELRKLTLDIPIIYFGFGEENEFQAKNVIKETTGTKFDVYHREEFLSSFEIPAYGDHNVLNALSVIALCDYEGLPVEDVKNELKTFEGVKRRFSITEKGNQVLVDDYAHHPSEIRATVNAARQKYPDKKVVAVFQPHTFTRTRTFLQGFADSLNLADEVYLCDIFGSAREKTGNLTIADLAHKTKGNHIIKEEHTEELLKYPEAVILFMGAGDVQKFQAAYEKVLDHEFLTEADLKKSAIN”: “failed”.
With “MTIYLHSIQIGVLLFFIFLFISLIPYLIVQYRRYGRINFWRFFVNFSFILYLICAYAMTIFPLPPVSEVAKMTGPKQNLVPFEFVRQFILYSPFNINEPSTWLAALKDSTFIQPFFNLLLTLPFGLYLRYLFKRSFKQTFVLSFLLTLSFELIQRSALFGLYPRPYRLFDVDDLMINTLGSLIGFGIAVTFSRFLPDLDATKAESSRVSLSRRFIAFLVDLVLIFIIGSLFLPIGYYSELIILGLVPLVLKATPGQLLLRIQIKAKNRFRIALRQFLSFGNFALIISAEYFLQRSGTIPQDQLGQNFLLILLFLGLSLLPLLDVLIAFLSKTRKLWYERVSDTEMIAKLKTNEE”, the protein production result is listed as “failed”.
The same measure for “MTIYTLSHGSLKLDVSDQGGVIEGFWRDTTPLLRPGKKSGVATDASCFPLVPFANRVSGNRFVWQGREYQLQPNVEWDAHYLHGDGWLGEWQCVSHSDDSLCLVYEHRSGVYHYRVSQAFHLTADTLTVTLSVTNQGAETLPFGTGWHPYFPLSPQTRIQAQASGYWLEREQWLAGEFCEQLPQELDFNQPAPLPRQWVNNGFAGWNGQARIEQPQEGYAIIMETTPPAPCYFIFVSDPAFDKGYAFDFFCLEPMSHAPDDHHRPEGGDLIALAPGESTTSEMSLRVEWL”: “not failed”; for “MTKAPSLAFLCIQSLKIQLLESDNPIPDLYELPSELLDGIVAHLPALALQKFQTNMPFHCLDSYESGDDCCLITGRKRARNDVLGSSWKLLFKLRWPDFVDRVESPADWQQLYWEKHLQNCVDEAAEVALRPTFSGRICSINVSDNILRYICHEEHIMTCQNCVCKELSFHFQTFGPYLRCLRLLNVLCVTETSELLRTSKLRSLVLRWIRSEKHVEPLCKLLIQSRETLTSLELIHCKLSLSSISAICTSLHEKGIHTTGMQRFCIKTSSIEIDPLAAPSAFVSFLMSVRTLHSLHFGDSNLDRYFARMVFSTLLDSSSNLSSLDLSENNISGWLSTFSCKSVVGSLSSGKSLQSLCKLNLRGNELDRYDAENLAHALLHMPGLESLDLSGNPIEDSGIRSLISYFTKNPDSRLADLNLENCELSCCGVIEFLDTLSMLEKPLKFLSVADNALGSEVAEAVVNSFTISIESLNIMGIGLGPLGFLALGRKLEKVSKKLLSINISKNRGGLETARFLSKLIPLAPKLISIDASYNLMPPEALLMLCDSLRTAKGDLKRLDMTGNSCISHEADHSSLLHEFQHNGEPIFVLPSSSVSHVPYDDDP”: “failed”.
The same measure for “MTKEKSTVPRLRFPGFTDAWKQRKLGEVADFSIKTNSLSRDKLSSYFYEVQNIHYGDILTKYDAILDVCNKELPSIIGSTISDFADALLSEGDIVFADAAEDSTVGKAIEVRNFKGKNVVSGLHTIVARPKVSYAPYYLGYLINSTAYHNQILPLMQGTKVSSISKANLKSTTVVFPTLPEQEAIGSFFSDLDQLITLHQRKLDDVKELKKALLQKMFPKGNGNDFPELRFPEFTDAWKQRKLGEFMKESKILGSKGDIARKLTVRLWGRGVVSKKEIYSGSSATQYYIRKSGQFIYGKLDFLNQAFGIIPPELDGYESTLDSPAFDLLKGINGQFLLEFVSRKEFYYYQGNIANGSRKAKRIHTETFLGMPISLPTLPEQEAIGSFFSDLDQLITLHQRK”: “failed”.
Turning to “MTKETDDDDNDIPIQEDDEEKNPDQDYQELLDGLLNLSGRQLLMFYWDHELTEAVREGFEVISQKWMKGIDQMWVHWNTSRATVRSESASQFRNSDRGGLGPHRNISSQKSFVQVHEELEELYGRHVSLGEVFMKTHTRADGSFVDAKAEKVAEVYKKACEEKLTEIDDDGPKTSMNSSELSTHRDLNIDDKNEIFLQSAS”, the protein production entry is given as “failed”.
The same measure for “MTKFYKFLISIIILALVCLIFFLAKSNILNLDSLKNLILSSGYFAPLIYIIAFALVPLTFFPDSILAILGGSIFGLGGGFLYTSIGALIGGSISFFISRILGQSFVEKFENDKLKNIQELLKDNGFLMILLLRLIPLFPFDLISYGAGLTKISYKDFALGTLIGTIPGILVFVNLGAQWITFNKTSIYLSVSLLILFIIVSVFLKKIYINKHLAKGN”: “failed”; for “MTKGESTMQRIAVLSDAETATGYRLAGATVIEASPEDALRTLEQAITDGGYGLIAVDTGLIPDPATATARIMRGRDLPILLPIPSLRDAFSSDTVDAKAYMGKLVRDTIGFDIKLLEHHHHHH”: “not failed”.
The same measure for “MTKIACVIVTYNRKQLLEEALNSVLIQTESPEYVFVIDNASTDGTEKYINDKFNFDNRQWHYVRCSQNLGGSAGFAQGMRLALQTDCSWISISDDDAIFEPGYFAALRKGIKQYPEQSVFSGSVLLPDGKHDMMHREVITNSATLTVRCVTDETYKHDFSYDIFSFVGILLSRQVIEAIGLPEQDYFIRFDDFEYAVRALKFGRFMNLSAAKVLHKTTYTRSAIAPWKEYYVMRNRIALLIKHRGNNHTVRWYCRRFLLRKLLAILLFSNRRRQARSLVNAYVKGYQDGWHARLGRQLAFLPS”: “failed”.
As for “MTKILAIIGARLNSSRLAGKHLLPLACDAAGNTLPIIGHILRRLKTCSTISSIELATTADEFNQPLINWAQENQLTCVPFEGDVNDLMGRLDRIIQRQQPDYIVYICGDCPLIDPNFIDHALLALKASDKDTITLKEGIISLHEGIGFYTRSGWNRLMAVSDCVMSREHVGYGDKLRPVLTKLYIDDSGNYGKITHRISVDTHADYRFMVEVYRRWYVNNPTETVVSLEWVQEELLKDSALFAINAHVQQKAANKNYAKASIYCHLGPQIGLGHFKRSELIANALQEHLSLGVNIHAYSEAGQRLDSSSKVVWHEDEQALLSALTEDQNPLVLLDFHPNFIDLESFANRLAGLAKHGAKRIGIDKMAPLLDELDWLFIPSFNSPTHHPKISAGWRNYLFSTIPQATKQAQILVLTGGSDALGYGRELPTILDSIGTDWPILWIQGPLAPAPQLTPNSAIVVQQNPDNLKEIIAQSEIILSCYGLSLFESIYGKAATLLLPPQHLCDEAELFALNQERCCLVSDSLEEAKMMLQQLLTEPEQRRSLQNQATRVFESHQGIQALIDDIHHLLGAVN”, the protein production result is “failed”.
The same measure for “MTKKEKGTMMTLAAGLAWGISGISGQYLMSHGVHVNLLTSLRLLITGIFLLSLARSKQKEHLVAAWKQPKFLKQVLLFSIFGLVLNQYAFLRAIHLTNAGTATVLQYMAPILILSIVCILNRQRPTSFEIIAIAMAILGTYMIATHGKLGSLAITPKGLMWGLGSAITYSIYILLPVKLIHEWGSTIVIGSGMFIGGILFSLVTKAWQYPLQINVMSILAYIGIIGIGTIFAYTFFLKGVSIVGAVKGSLLASVEPVSSVFLTVLVLGEIFYPIDLLGMLFIFLAVTLISYKDLIALKKMKRVR”: “failed”; for “MTKKQKEILFCDYFEEWVEVYKVGAIAKITLAKYYNAAKQLRDLCPKLFISDFDRREYQRIINVYAETHEKQTVKDFHHHVKACIKDLFHDGLIDKDPTYRVVIKGAEPTRAKLEHHHHHH”: “failed”.
